According to IntAct's records for PubMed 21441902:

B1: mRNA export factor GLE1 (Saccharomyces cerevisiae), Q12315 (parent)
chain: MRFVFDEVFNSDTDSPEFEETCSTTSSTSSQCPTPEPSPAIKLPSFTKVGTKKLVNESVVILDPALENALRDLNLQSKLIPINEPIVAASSIIVPHSTNMPLPRASHSSLLDNAKNSNATAPLLEAIEESFQRKMQNLVLANQKEIQSIRENKRRVEEQRKRKEEEERKRKEAEEKAKREQELLRQKKDEEERKRKEAEAKLAQQKQEEERKKIEEQNEKERQLKKEHEAKLLQQKDKLGKAVTNFDKISKMFWHYKDKIAQIKQDIVLPIKKADVNVRNLLSRHKRKINPKFGQLTNSNQQLFKIQNELTQLINDTKGDSLAYHWILNFIAKAVVHQAETEVRVKPESALPLGKLTLYLLVQFPELQELFMARLVKKCPFVIGFTCEIDTEKGRQNMGWKRNNENKWEDNTSYDERMGGILSLFAIITRLQLPQEFITTTSHPFPIALSWHILARICNTPLNLITNTHFVILGSWWDAAAVQFLQAYGNQASKLLILIGEELTSRMAEKKYVGAARLRILLEAWQNNNMESFPEMSP
partner: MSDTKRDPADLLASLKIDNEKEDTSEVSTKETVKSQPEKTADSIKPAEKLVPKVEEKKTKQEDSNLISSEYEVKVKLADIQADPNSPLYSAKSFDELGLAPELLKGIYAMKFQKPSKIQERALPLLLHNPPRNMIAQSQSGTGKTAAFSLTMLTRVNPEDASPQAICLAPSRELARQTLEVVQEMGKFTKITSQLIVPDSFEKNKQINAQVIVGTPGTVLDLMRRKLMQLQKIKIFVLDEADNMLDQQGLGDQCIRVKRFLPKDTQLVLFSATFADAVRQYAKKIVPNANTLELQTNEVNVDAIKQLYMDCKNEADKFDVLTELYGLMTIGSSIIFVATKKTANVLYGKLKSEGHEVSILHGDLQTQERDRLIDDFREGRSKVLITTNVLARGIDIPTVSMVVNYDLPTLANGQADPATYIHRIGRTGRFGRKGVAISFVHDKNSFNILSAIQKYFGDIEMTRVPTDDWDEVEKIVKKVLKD
B2: ATP-dependent RNA helicase DBP5 (Saccharomyces cerevisiae), P20449 (parent)
chain: B1 partner
partner: B1 chain

Variants of: B1
Details: with dbp5_yeast DBP5, P20449

| effect of a mutation on the interaction | Variant |
| --- | --- |
| disrupting interaction | MRFVFDEVFNSDTDSPEFEETCSTTSSTSSQCPTPEPSPAIKLPSFTKVGTKKLVNESVVILDPALENALRDLNLQSKLIPINEPIVAASSIIVPHSTNMPLPRASHSSLLDNAKNSNATAPLLEAIEESFQRKMQNLVLANQKEIQSIRENKRRVEEQRKRKEEEERKRKEAEEKAKREQELLRQKKDEEERKRKEAEAKLAQQKQEEERKKIEEQNEKERQLKKEHEAKLLQQKDKLGKAVTNFDKISKMFWHYKDKIAQIKQDIVLPIKKADVNVRNLLSRHKRKINPKFGQLTNSNQQLFKIQNELTQLINDTKGDSLAYHWILNFIAKAVVHQAETEVRVKPESALPLGKLTLYLLVQFPELQELFMARLVKKCPFVIGFTCEIDTEKGRQNMGWKRNNENKWEDNTSYDERMGGILSLFAIITRLQLPQEFITTTSHPFPIALSWHILARICNTPLNLITNTHFVILGSWWDAAAVQFLQAYGNQASKLLILIGEELTSRMAEKKYDGADRLRDLLEAWQNNNMESFPEMSP [V513D;A516D;I520D] |

Variants of: B2
Details: with gle1_yeast GLE1, Q12315

| effect of a mutation on the interaction | Variant |
| --- | --- |
| disrupting interaction | MSDTKRDPADLLASLKIDNEKEDTSEVSTKETVKSQPEKTADSIKPAEKLVPKVEEKKTKQEDSNLISSEYEVKVKLADIQADPNSPLYSAKSFDELGLAPELLKGIYAMKFQKPSKIQERALPLLLHNPPRNMIAQSQSGTGKTAAFSLTMLTRVNPEDASPQAICLAPSRELARQTLEVVQEMGKFTKITSQLIVPDSFEKNKQINAQVIVGTPGTVLDLMRRKLMQLQKIKIFVLDEADNMLDQQGLGDQCIRVKRFLPKDTQLVLFSATFADAVRQYAKKIVPNANTLELQTNEVNVDAIKQLYMDCKNEADKFDVLTELYGVMTIGSSIIFVATKKTANVLYGKLKSEGHEVSILHGDLQTQERDRLIDDFREGRSKVLITTNVLARGIDIPTVSMVVNYDLPTLANGQADPATYIHRIGRTGRFGRKGVAISFVHDKNSFNILSAIQKYFGDIEMTRVPTDDWDEVEKIVAKVLAD [L327V;K477A;K481A] |
